Measured values reported in patent US20260217835A1.

Molecular target: GCH065-G1T6v2/L0011-kT0
Test: CIEX peak area ratio; coexpression from mRNAs (heavy 1/light/heavy 2 = 1/4/1) in Expi293 cells

Sequence of GCH065-G1T6v2/L0011-kT0 (heavy, as listed by the source): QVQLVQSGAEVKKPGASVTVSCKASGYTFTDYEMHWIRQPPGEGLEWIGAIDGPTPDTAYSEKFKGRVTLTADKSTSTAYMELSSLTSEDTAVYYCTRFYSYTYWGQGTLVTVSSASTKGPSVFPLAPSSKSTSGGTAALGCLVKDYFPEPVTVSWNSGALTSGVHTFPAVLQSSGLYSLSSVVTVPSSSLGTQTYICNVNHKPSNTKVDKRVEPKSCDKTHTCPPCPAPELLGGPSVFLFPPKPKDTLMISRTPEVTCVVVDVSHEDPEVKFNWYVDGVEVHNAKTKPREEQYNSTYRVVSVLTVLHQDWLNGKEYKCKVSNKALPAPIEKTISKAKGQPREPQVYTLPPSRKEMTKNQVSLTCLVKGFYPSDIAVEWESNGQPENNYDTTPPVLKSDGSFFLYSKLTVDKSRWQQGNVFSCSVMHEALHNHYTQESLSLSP

B1: TR01H113-G1T6/L0011-kT0 (antibody, human IgG1, kappa, V domains shown)
VH: QVQLVESGGGVVQPGGSLRLSCAASGFTFSNAWMHWVRQAPGKGLEWVAQIKDKSQNYATYVAESVKGRFTISRADSKNSIYLQMNSLKTEDTAVYYCRYVHYAAGYGVDIWGQGTTVTVSS
VL: DIVMTQSPLSLPVTPGEPASISCRSSQPLVHSNRNTYLHWYQQKPGQAPRLLIYKVSNRFSGVPDRFSGSGSGTDFTLKISRVEAEDVGVYYCGQGTQVPYTFGQGTKLEIKR
Heavy chain heteromultimer (TG, T1G2, QJ, Q3J4) (%): 2.07%
